Assay results: paper PMC9909325, “Crystal structure of the phosphorylated Arabidopsis MKK5 reveals activation mechanism of MAPK kinases” (Acta Biochimica et Biophysica Sinica, 2022)
Positions count from the first letter of the chain named. In names and notes the source's numbering stands. Each block holds one molecule with its values, some of them ahead of it.

What was measured:
[1] = target: T1, AtMKK5-KD (Arabidopsis thaliana, UniProt Q8RXG3); assay: PK/LDH-coupled NADH oxidation at […] nm (ATPase); assay type: biochemical; settings: 1 mM ATP, 20 nM phosphorylated kinase domain; 10 mM MgCl2, pH 7.0, 25 °C
T1 construct: gene MKK5; kinase domain, residues 62-335, N-terminal His6-tag, pET28b, E. coli BL21(DE3); phosphorylated at Ser66, Thr83, Thr108, Thr215, Ser221
T1 sequence (Q8RXG3 62-335): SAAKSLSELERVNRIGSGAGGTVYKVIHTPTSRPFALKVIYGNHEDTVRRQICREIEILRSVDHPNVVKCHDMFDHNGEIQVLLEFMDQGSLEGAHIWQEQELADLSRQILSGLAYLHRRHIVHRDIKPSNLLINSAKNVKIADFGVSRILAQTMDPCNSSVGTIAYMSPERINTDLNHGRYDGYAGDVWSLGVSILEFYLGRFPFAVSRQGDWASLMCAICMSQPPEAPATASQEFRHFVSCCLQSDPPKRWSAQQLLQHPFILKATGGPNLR

[2] = target: AtMPK6(K92M) (Arabidopsis thaliana) (UniProt Q39026)
AtMPK6(K92M) (Arabidopsis thaliana), sequence (Q39026 whole entry K92M): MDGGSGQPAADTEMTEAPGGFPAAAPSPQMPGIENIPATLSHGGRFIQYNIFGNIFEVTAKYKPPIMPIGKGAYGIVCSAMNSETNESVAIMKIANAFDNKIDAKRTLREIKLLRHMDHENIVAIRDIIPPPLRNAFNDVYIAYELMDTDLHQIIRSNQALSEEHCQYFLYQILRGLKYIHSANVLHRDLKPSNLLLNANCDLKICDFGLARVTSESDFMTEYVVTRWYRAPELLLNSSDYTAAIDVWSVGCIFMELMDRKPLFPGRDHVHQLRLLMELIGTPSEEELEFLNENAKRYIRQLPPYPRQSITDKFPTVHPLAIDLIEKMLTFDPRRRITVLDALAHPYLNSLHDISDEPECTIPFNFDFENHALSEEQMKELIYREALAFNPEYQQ

[3] = substrate: Nc1ncnc2c1ncn2[C@@H]1O[C@H](COP(=O)(O)OP(=O)(O)OP(=O)(O)O)[C@@H](O)[C@H]1O; assay: purified protein; assay type: biochemical, Arabidopsis thaliana; settings: no protein substrate, 10 mM MgCl2, 50 mM MOPS pH 7.0, 100 mM NaCl, 25 °C, phosphorylated enzyme 20 nM

decrease of AtMPK6(K92M) phosphorylation activity against wild-type AtMKK5, coupled spectrophotometric assay (20 nM AtMKK5, 1 mM ATP, 1 μM AtMPK6(K92M)) (fold decrease) [2]: 25
B1: AtMKK5 RRKR4A (full length; Arg17, Arg19, Lys20 and Arg21 all replaced by Ala) (enzyme)
chain: MKPIQSPSGVASPMKNALAAAPDLSLPLPHRDVALAVPLPLPPPSSSSSAPASSSAISTNISAAKSLSELERVNRIGSGAGGTVYKVIHTPTSRPFALKVIYGNHEDTVRRQICREIEILRSVDHPNVVKCHDMFDHNGEIQVLLEFMDQGSLEGAHIWQEQELADLSRQILSGLAYLHRRHIVHRDIKPSNLLINSAKNVKIADFGVSRILAQTMDPCNSSVGTIAYMSPERINTDLNHGRYDGYAGDVWSLGVSILEFYLGRFPFAVSRQGDWASLMCAICMSQPPEAPATASQEFRHFVSCCLQSDPPKRWSAQQLLQHPFILKATGGPNLRQMLPPPRPLPSAS
modifications: phosphorylated at Ser/Thr residues (signals similar to the wild type; sites not stated)

decrease of AtMPK6(K92M) phosphorylation activity against wild-type AtMKK5, coupled spectrophotometric assay (20 nM AtMKK5, 1 mM ATP, 1 μM AtMPK6(K92M)) (fold decrease) [2]: 10
B4: AtMKK5 L24A (full length) (enzyme)
chain: B1 chain with A17R, A19R, A20K, A21R, L24A
modifications: phosphorylated at Ser/Thr residues (signals similar to the wild type; sites not stated)

decrease of AtMPK6(K92M) phosphorylation activity against wild-type AtMKK5, coupled spectrophotometric assay (20 nM AtMKK5, 1 mM ATP, 1 μM AtMPK6(K92M)) (fold decrease) [2]: 3
B6: AtMKK5 R19A (full length) (enzyme)
chain: B1 chain with A17R, A20K, A21R
modifications: phosphorylated at Ser/Thr residues (signals similar to the wild type; sites not stated)

decrease of AtMPK6(K92M) phosphorylation activity against wild-type AtMKK5, coupled spectrophotometric assay (20 nM AtMKK5, 1 mM ATP, 1 μM AtMPK6(K92M)) (fold decrease) [2]: 10
B7: AtMKK5 L26A (full length) (enzyme)
chain: B1 chain with A17R, A19R, A20K, A21R, L26A
modifications: phosphorylated at Ser/Thr residues (signals similar to the wild type; sites not stated)

The remaining lines, values behind:

Molecule: Nc1ncnc2c1ncn2[C@@H]1O[C@H](COP(=O)(O)OP(=O)(O)OP(=O)(O)O)[C@@H](O)[C@H]1O [ATP]
PK/LDH-coupled NADH oxidation at 340 nm (ATPase) [1]: examined their effects on the catalytic function of AtMKK5-KD

B2: AtMKK5 L28A (full length) (enzyme)
chain: B1 chain with A17R, A19R, A20K, A21R, L28A
modifications: phosphorylated at Ser/Thr residues (signals similar to the wild type; sites not stated)
decrease of AtMPK6(K92M) phosphorylation activity against wild-type AtMKK5, coupled spectrophotometric assay (20 nM AtMKK5, 1 mM ATP, 1 μM AtMPK6(K92M)) (fold decrease) [2]: 10

B3: AtMKK5 R21A (full length) (enzyme)
chain: B1 chain with A17R, A19R, A20K
modifications: phosphorylated at Ser/Thr residues (signals similar to the wild type; sites not stated)
decrease of AtMPK6(K92M) phosphorylation activity against wild-type AtMKK5, coupled spectrophotometric assay (20 nM AtMKK5, 1 mM ATP, 1 μM AtMPK6(K92M)) (fold decrease) [2]: 3

B5: AtMKK5 (full-length, phosphorylated; p-AtMKK5) (Arabidopsis thaliana) (protein)
chain: B1 chain with A17R, A19R, A20K, A21R
notes: full-length (348 residues), N-terminal His6-tag, pET28b, E. coli BL21(DE3); phosphorylated at Ser/Thr as purified
Km [3]: 96.2 ± 3.5 µM
kcat [3]: 1.96 ± 0.02 s⁻¹

B8: AtMKK5 LLL3A (full length; Leu24, Leu26 and Leu28 all replaced by Ala) (enzyme)
chain: B1 chain with A17R, A19R, A20K, A21R, L24A, L26A, L28A
modifications: phosphorylated at Ser/Thr residues (signals similar to the wild type; sites not stated)
drop of the initial velocity of AtMPK6(K92M) phosphorylation against wild-type AtMKK5, coupled spectrophotometric assay (20 nM AtMKK5, 1 mM ATP, 1 μM AtMPK6(K92M)) (fold decrease) [2]: 90

B9: AtMKK5 K20A (full length) (enzyme)
chain: B1 chain with A17R, A19R, A21R
modifications: phosphorylated at Ser/Thr residues (signals similar to the wild type; sites not stated)
decrease of AtMPK6(K92M) phosphorylation activity against wild-type AtMKK5, coupled spectrophotometric assay (20 nM AtMKK5, 1 mM ATP, 1 μM AtMPK6(K92M)) (fold decrease) [2]: 3
